First the molecules themselves.
T1: Nectin-4 Mutant 6 (H238A/I239T/H241Q) (Homo sapiens, UniProt Q96NY8, H238A/H241Q/I239T)
T1 construct: expressed in transfected cells; host or cells: HEK293T
T1 sequence (Q96NY8 32-510 H238A/I239T/H241Q): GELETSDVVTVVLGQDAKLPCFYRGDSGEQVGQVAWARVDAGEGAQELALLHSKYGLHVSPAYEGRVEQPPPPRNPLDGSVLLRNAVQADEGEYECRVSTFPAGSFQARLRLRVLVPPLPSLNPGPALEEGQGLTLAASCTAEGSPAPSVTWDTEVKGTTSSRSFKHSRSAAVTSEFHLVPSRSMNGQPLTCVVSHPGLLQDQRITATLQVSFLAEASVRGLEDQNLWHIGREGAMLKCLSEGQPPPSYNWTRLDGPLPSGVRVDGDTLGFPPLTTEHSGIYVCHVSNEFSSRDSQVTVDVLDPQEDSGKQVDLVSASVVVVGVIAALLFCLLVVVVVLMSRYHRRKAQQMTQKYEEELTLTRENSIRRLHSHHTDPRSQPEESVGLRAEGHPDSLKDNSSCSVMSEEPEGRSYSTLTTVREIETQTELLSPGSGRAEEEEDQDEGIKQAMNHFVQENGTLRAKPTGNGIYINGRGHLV

T2: Nectin-4 Mutant 9 (L150S/S152A/Q234R/I236S) (Homo sapiens, UniProt Q96NY8, I236S/L150S/Q234R/S152A)
T2 construct: expressed in transfected cells; host or cells: HEK293T
T2 sequence (Q96NY8 32-510 L150S/S152A/Q234R/I236S): T1 sequence (Q96NY8 32-510 H238A/I239T/H241Q) with L119S, S121A, Q203R, I205S, A207H, T208I, Q210H

T3: Nectin-4 Mutant 8 (T190A/T191Q/S193A) (Homo sapiens, UniProt Q96NY8, S193A/T190A/T191Q)
T3 construct: expressed in transfected cells; host or cells: HEK293T
T3 sequence (Q96NY8 32-510 T190A/T191Q/S193A): T1 sequence (Q96NY8 32-510 H238A/I239T/H241Q) with T159A, T160Q, S162A, A207H, T208I, Q210H

T4: Nectin-4 Mutant 7 (S195A/K197T/S199A) (Homo sapiens, UniProt Q96NY8, K197T/S195A/S199A)
T4 construct: expressed in transfected cells; host or cells: HEK293T
T4 sequence (Q96NY8 32-510 S195A/K197T/S199A): T1 sequence (Q96NY8 32-510 H238A/I239T/H241Q) with S164A, K166T, S168A, A207H, T208I, Q210H

B1: 5E7 (antibody, V domains shown)
VH: QVQLQQPGAELVKPGASVKLSCKASGYIFTSYWMHWVKQRPGQGLEWIGEIDPSDSYTNYNQKFKGKATLTLDKSSSTTYMQLSSLTSEDSAVYYCVRGYGNYGDYWGQGTTLTVSS
VL: DVVMTQAAFSNPVTLGTSASISCRSSKSLLHSNGITYLYWYLQKPGQSPQLLIYQMSNLASGVPDRFSSSGSGTDFTLRISRVEAEDVGVYYCAQNLELPWTFGGGTKLEIK
B2: 10B12: anti-Nectin-4 antibody, VH SEQ ID NO: 24, VL SEQ ID NO: 25, binds junction of domain C1 and V (antibody, listed as Mus musculus, V domains shown)
VH: B1 VH with I28T, L72V, T79A
VL: B1 VL with V2I
B3: N41 (antibody, V domains shown)
VH: QVQLKQSGPGLVQPSQSLSITCTVSGFSLTNYGVHWVRQSPGKGLEWLGVIWSGGSTDYNAAFISRLSISKDTSKSQVFFKMNSLQADDTAIYYCARELIHAMDNWGQGTSVTVSS
VL: DIQMTQSPASLSVSVGETVTITCRASENIYSNLAWYQQKQGNSPQLLVFAATNLADGVPSRFSGSGSGTQYSLKINSLQSEDFGTYYCQHFWGTPTFGGGTKLEIK

Substitutions are numbered along the chain they refer to.

The target of one assay is T1, Nectin-4 Mutant 6 (H238A/I239T/H241Q). Nature of the assay: Binding to cell surface expressed Nectin-4 point mutant. The conditions noted are these: HEK-293T. The text has this:
(§1) Combined with the published structures of the Nectin-4 domains, Nectin-4 mutations at surface exposed amino acids residues were designed. Nectin-4 domain structure was modelled based on Protein Data Bank reference: 4FRW (domains V et C1). Human Nectin-4 used was NCBI Reference Sequence: NP_112178.2, mouse Nectin-4 used was NCBI Reference Sequence: AAL79833.1, cynomolgus Nectin-4 used was NCBI Reference Sequence: XP_005541277.1, rat Nectin-4 used was NCBI Reference Sequence: NP_001102546.1. The cells expressing the Nectin-4 mutants are then be used for testing anti-Nectin-4 antibodies for loss of binding to different Nectin-4 mutants to identify antibodies that bind to the same site on Nectin-4. […] FIGS. 12A and 12B show a molecular model of the human Nectin-4 protein, indicating the position of substituted residues in mutants 7 (12A) and in mutants 7bis (12B); these mutants are in the C1 domain identify two sites at the junction of domain C1 and V domain that are on opposing faces of the Nectin-4 protein.
(§2) Nectin-4 mutants were generated by PCR. The sequences amplified were run on agarose gel and purified using the Macherey Nagel PCR Clean-Up Gel Extraction kit. The purified PCR products generated for each mutant were then ligated into an expression vector, with the ClonTech InFusion system. The vectors containing the mutated sequences were prepared as Miniprep and sequenced. After sequencing, the vectors containing the mutated sequences were prepared as Midiprep using the Promega PureYield™ Plasmid Midiprep System. HEK293T cells were grown in DMEM medium (Invitrogen), transfected with vectors using Invitrogen's Lipofectamine 2000 and incubated at 37° C. in a CO2 incubator for 48 hours prior to testing for transgene expression. The targeted amino acid mutations are shown in Table 2 below, listing the residue present in wild-type Nectin-4/position of residue/residue present in mutant Nectin-4, with position reference being to the Nectin-4 protein with leader peptide shown in SEQ ID NO: 1.
Take B1: the “association with Nectin-4 Mutant 6” value is given as “+”.
On to B2, for which the “association with Nectin-4 Mutant 6” value is given as “+”.
With B3, the “association with Nectin-4 Mutant 6” value is “+”.

The next assay deals with T2, Nectin-4 Mutant 9 (L150S/S152A/Q234R/I236S). Described as above. The conditions noted are these: HEK-293T.
From the text: as §1, §2
As to B1, the “association with Nectin-4 Mutant 9” value is “+”.
Turning to B2, the “association with Nectin-4 Mutant 9” value is on record as “+”.
For B3, the “association with Nectin-4 Mutant 9” value was “+”.

A further assay has as its target T3, Nectin-4 Mutant 8 (T190A/T191Q/S193A). Described as above. The conditions noted are these: HEK-293T.
From the text: as §1, §2
Regarding B1, the “association with Nectin-4 Mutant 8” value is given as “+”.
For B2, the “association with Nectin-4 Mutant 8” value was “+”.
The same measure, in the same setting: the entry for B3 is “+”.

For another assay, the target named is T4, Nectin-4 Mutant 7 (S195A/K197T/S199A). The description is as above. The conditions noted are these: HEK-293T.
From the text: as §1, §2
As for B1, the “association with Nectin-4 Mutant 7” value is “−”.
In the case of B2, the “association with Nectin-4 Mutant 7” value was “−”.
As for B3, the “association with Nectin-4 Mutant 7” value is listed as “+”.
